Data reported in PMC4106346, “The Oligomeric States of the Purified Sigma-1 Receptor Are Stabilized by Ligands*” (The Journal of Biological Chemistry, 2014).

How the values were obtained:
[1] = molecular target: the molecule itself; experiment: SEC; analytical size exclusion chromatography, Yarra SEC-3000, 10 mM HEPES pH 7.2, 150 mM NaCl, 0.3 mM TCEP, 0.018% DDM, column at 20 °C; self-association in protein-detergent micelles
[2] = molecular target: the molecule itself; experiment: SEC-MALS; isolated intermediate oligomer (peak *) of MBP-4A-S1R; Superdex S200, 150 mM NaCl, 5 mM HEPES pH 7.2, 0.018% DDM
[3] = molecular target: the molecule itself; experiment: cross-linking; DSS (150 or 250 μM) on 5 μM isolated peak 1 (oligomer) of MBP-4A-S1R, 2 h at room temperature, with or without 10 μM BD-1047; SDS-PAGE
[4] = molecular target: the molecule itself; experiment: SEC-MALS; isolated peak 1 (largest oligomer) of MBP-4A-S1R; Superdex S200, 150 mM NaCl, 5 mM HEPES pH 7.2, 0.018% DDM

Row | Protein | stoichiometry N [1] | binding result [1] | other results
1 | G91I MBP-4A-S1R (receptor, guinea pig, UniProt Q60492 1-223, looked up, sigma-1 receptor (S1R), guinea pig, 223 amino acids, as m1 with G91I; also called G91I mutation; not shown: MBP with 4-Ala linker, N-terminal, kept) MQWAVGRRWLWVALFLAAVAVLTQIVWLWLGTQNFVFQREEIAQLARQYAGLDHELAFSKLIVELRRLHPVHVLPDEELQWVFVNAGGWMIAMCLLHASLSEYVLLFGTALGSPRHSGRYWAEISDTIISGTFHQWREGTTKSEVFYPGETVVHGPGEATAVEWGPNTWMVEYGRGVIPSTLGFALADTVFSTQDFLTLFYTLRVYARALQLELTTYLFGQDP | ~2 | – | –
2 | G88L MBP-4A-S1R (receptor, guinea pig, UniProt Q60492 1-223, looked up, sigma-1 receptor (S1R), guinea pig, 223 amino acids, as m1 with G88L; Named only as one of the substitutions of Ile or Leu at Gly-87, Gly-88 and Gly-91; also called substitution of Leu at Gly-88; not shown: MBP with 4-Ala linker, N-terminal, kept) MQWAVGRRWLWVALFLAAVAVLTQIVWLWLGTQNFVFQREEIAQLARQYAGLDHELAFSKLIVELRRLHPVHVLPDEELQWVFVNAGLWMGAMCLLHASLSEYVLLFGTALGSPRHSGRYWAEISDTIISGTFHQWREGTTKSEVFYPGETVVHGPGEATAVEWGPNTWMVEYGRGVIPSTLGFALADTVFSTQDFLTLFYTLRVYARALQLELTTYLFGQDP | – | binds | –
3 | MBP-4A-S1R (guinea pig sigma-1 receptor fused to maltose-binding protein through a 4-Ala linker) (receptor, UniProt Q60492 1-223, looked up, sigma-1 receptor (S1R), guinea pig, 223 amino acids; In detergent micelles (DDM); One preparation separates into a 6-8-mer, a tetramer and a monomer; also called nonmutated receptor; nonmutated fusion protein; source: preparative size exclusion chromatography; not shown: MBP with 4-Ala linker, N-terminal, kept) MQWAVGRRWLWVALFLAAVAVLTQIVWLWLGTQNFVFQREEIAQLARQYAGLDHELAFSKLIVELRRLHPVHVLPDEELQWVFVNAGGWMGAMCLLHASLSEYVLLFGTALGSPRHSGRYWAEISDTIISGTFHQWREGTTKSEVFYPGETVVHGPGEATAVEWGPNTWMVEYGRGVIPSTLGFALADTVFSTQDFLTLFYTLRVYARALQLELTTYLFGQDP | – | – | stoichiometry N [2]: 4; stoichiometry N [3]: > 4; stoichiometry N [4]: 6 to 8
4 | G91L MBP-4A-S1R (receptor, guinea pig, UniProt Q60492 1-223, looked up, sigma-1 receptor (S1R), guinea pig, 223 amino acids, as m1 with G91L; also called G91L mutation; not shown: MBP with 4-Ala linker, N-terminal, kept) MQWAVGRRWLWVALFLAAVAVLTQIVWLWLGTQNFVFQREEIAQLARQYAGLDHELAFSKLIVELRRLHPVHVLPDEELQWVFVNAGGWMLAMCLLHASLSEYVLLFGTALGSPRHSGRYWAEISDTIISGTFHQWREGTTKSEVFYPGETVVHGPGEATAVEWGPNTWMVEYGRGVIPSTLGFALADTVFSTQDFLTLFYTLRVYARALQLELTTYLFGQDP | ~4 | – | –
5 | G88I MBP-4A-S1R (receptor, guinea pig, UniProt Q60492 1-223, looked up, sigma-1 receptor (S1R), guinea pig, 223 amino acids, as m1 with G88I; Named only as one of the substitutions of Ile or Leu at Gly-87, Gly-88 and Gly-91; also called substitution of Ile at Gly-88; not shown: MBP with 4-Ala linker, N-terminal, kept) MQWAVGRRWLWVALFLAAVAVLTQIVWLWLGTQNFVFQREEIAQLARQYAGLDHELAFSKLIVELRRLHPVHVLPDEELQWVFVNAGIWMGAMCLLHASLSEYVLLFGTALGSPRHSGRYWAEISDTIISGTFHQWREGTTKSEVFYPGETVVHGPGEATAVEWGPNTWMVEYGRGVIPSTLGFALADTVFSTQDFLTLFYTLRVYARALQLELTTYLFGQDP | – | binds | –
6 | H97A MBP-4A-S1R (receptor, guinea pig, UniProt Q60492 1-223, looked up, sigma-1 receptor (S1R), guinea pig, 223 amino acids, as m1 with H97A; also called mutation H97A; not shown: MBP with 4-Ala linker, N-terminal, kept) MQWAVGRRWLWVALFLAAVAVLTQIVWLWLGTQNFVFQREEIAQLARQYAGLDHELAFSKLIVELRRLHPVHVLPDEELQWVFVNAGGWMGAMCLLAASLSEYVLLFGTALGSPRHSGRYWAEISDTIISGTFHQWREGTTKSEVFYPGETVVHGPGEATAVEWGPNTWMVEYGRGVIPSTLGFALADTVFSTQDFLTLFYTLRVYARALQLELTTYLFGQDP | – | binds | –
